Laboratory results as given in paper PMC5681266.

Assays:
[1] = molecular target: atypical chemokine receptor 3 (human (endogenous in hPPAEC)) (UniProt P25106)
[2] = molecular target: chemokine (C-X-C) motif receptor (CXCR) 4 (human (endogenous in hPPAEC)) (UniProt P61073)
Sequence of UniProt P61073 (P61073 whole entry): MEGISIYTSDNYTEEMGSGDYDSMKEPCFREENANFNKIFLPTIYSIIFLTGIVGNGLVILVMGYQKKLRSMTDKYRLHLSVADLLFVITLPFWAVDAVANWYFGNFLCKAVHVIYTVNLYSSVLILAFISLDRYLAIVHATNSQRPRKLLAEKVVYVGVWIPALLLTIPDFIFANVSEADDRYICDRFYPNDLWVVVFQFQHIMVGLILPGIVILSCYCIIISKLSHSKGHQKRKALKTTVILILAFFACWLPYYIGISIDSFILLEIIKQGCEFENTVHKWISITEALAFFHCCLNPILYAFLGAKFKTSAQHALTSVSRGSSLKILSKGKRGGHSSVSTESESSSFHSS

Sequence of UniProt P25106 (P25106 whole entry): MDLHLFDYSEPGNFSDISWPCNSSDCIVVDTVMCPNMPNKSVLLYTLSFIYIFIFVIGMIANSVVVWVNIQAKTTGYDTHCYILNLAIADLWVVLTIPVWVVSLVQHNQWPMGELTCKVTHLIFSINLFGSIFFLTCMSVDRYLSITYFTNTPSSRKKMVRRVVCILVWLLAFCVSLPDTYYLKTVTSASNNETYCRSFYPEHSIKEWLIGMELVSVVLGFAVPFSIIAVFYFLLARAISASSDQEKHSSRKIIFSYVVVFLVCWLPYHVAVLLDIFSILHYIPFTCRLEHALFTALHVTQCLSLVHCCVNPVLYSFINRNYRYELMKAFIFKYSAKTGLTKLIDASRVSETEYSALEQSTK

Substance: CXCL12 K27A/R41A/R47A (from UniProt P48061-2 22-89) (ligand)
- EC50 of β-arrestin 2 recruitment to ACKR3, Presto-Tango (Tango plasmid in HTLA cells) [1]: 1.2 nM
- efficacy (top plateau) of β-arrestin 2 recruitment to ACKR3, Presto-Tango, % of CXCL12α [1]: 83%
- EC50 of β-arrestin 2 recruitment to CXCR4, Presto-Tango (Tango plasmid in HTLA cells) [2]: 145 nM
- efficacy (top plateau) of β-arrestin 2 recruitment to CXCR4, Presto-Tango, % of CXCL12α [2]: 111%

Substance: CXCL12 R47E (from UniProt P48061-2 22-89) (ligand)
- EC50 of β-arrestin 2 recruitment to ACKR3, Presto-Tango (Tango plasmid in HTLA cells) [1]: 0.4 nM
- efficacy (top plateau) of β-arrestin 2 recruitment to ACKR3, Presto-Tango, % of CXCL12α [1]: 86%
- EC50 of β-arrestin 2 recruitment to CXCR4, Presto-Tango (Tango plasmid in HTLA cells) [2]: 127 nM
- efficacy (top plateau) of β-arrestin 2 recruitment to CXCR4, Presto-Tango, % of CXCL12α [2]: 105%

Substance: CXCL12 S-S4V, a protease resistant mutant (from UniProt P48061-2 22-89) (ligand)
- EC50 of β-arrestin 2 recruitment to ACKR3, Presto-Tango (Tango plasmid in HTLA cells) [1]: 0.7 nM
- efficacy (top plateau) of β-arrestin 2 recruitment to ACKR3, Presto-Tango, % of CXCL12α [1]: 88%
- EC50 of β-arrestin 2 recruitment to CXCR4, Presto-Tango (Tango plasmid in HTLA cells) [2]: 75 nM
- efficacy (top plateau) of β-arrestin 2 recruitment to CXCR4, Presto-Tango, % of CXCL12α [2]: 117%

Substance: CXCL12_(1), engineered constitutively monomeric CXCL12 variant (from UniProt P48061-2 22-89) (ligand)
- EC50 of β-arrestin 2 recruitment to ACKR3, Presto-Tango (Tango plasmid in HTLA cells) [1]: 5.6 nM
- efficacy (top plateau) of β-arrestin 2 recruitment to ACKR3, Presto-Tango, % of CXCL12α [1]: 98%
- EC50 of β-arrestin 2 recruitment to CXCR4, Presto-Tango (Tango plasmid in HTLA cells) [2]: 27 nM
- efficacy (top plateau) of β-arrestin 2 recruitment to CXCR4, Presto-Tango, % of CXCL12α [2]: 103%

Substance: CXCL12_(2), disulfide-locked dimeric CXCL12 variant (from UniProt P48061-2 22-89) (ligand)
- EC50 of β-arrestin 2 recruitment to ACKR3, Presto-Tango (Tango plasmid in HTLA cells) [1]: 8.8 nM
- efficacy (top plateau) of β-arrestin 2 recruitment to ACKR3, Presto-Tango, % of CXCL12α [1]: 87%
- EC50 of β-arrestin 2 recruitment to CXCR4, Presto-Tango (Tango plasmid in HTLA cells) [2]: 2.4 nM
- efficacy (top plateau) of β-arrestin 2 recruitment to CXCR4, Presto-Tango, % of CXCL12α [2]: 90%

Substance: CXCL12β (from UniProt P48061 22-93) (ligand)
- EC50 of β-arrestin 2 recruitment to ACKR3, Presto-Tango (Tango plasmid in HTLA cells) [1]: 1.5 nM
- efficacy (top plateau) of β-arrestin 2 recruitment to ACKR3, Presto-Tango, % of CXCL12α [1]: 103%
- EC50 of β-arrestin 2 recruitment to CXCR4, Presto-Tango (Tango plasmid in HTLA cells) [2]: 1.4 nM
- efficacy (top plateau) of β-arrestin 2 recruitment to CXCR4, Presto-Tango, % of CXCL12α [2]: 73%

Substance: N-terminal truncated CXCL12 (3–68) (from UniProt P48061-2 24-89) (domain or fragment)
- EC50 of β-arrestin 2 recruitment to ACKR3, Presto-Tango (Tango plasmid in HTLA cells) [1]: 13.3 nM
- efficacy (top plateau) of β-arrestin 2 recruitment to ACKR3, Presto-Tango, % of CXCL12α [1]: 19%
- EC50 of β-arrestin 2 recruitment to CXCR4, Presto-Tango (Tango plasmid in HTLA cells) [2]: > 1000 nM
